Experimental data taken from patent US20220040297A1 (Chugai, published 2022).

B1: 154R3A01#3 (antibody, human IgG1, kappa, L234A L235A, N297A)
heavy: QVQLVESGGGLVQPGRSLRLSCAASGFAFSNAWMHWVRQAPGKGLEWVAQIKDRVNQYANYYAESVKGRFTISRDDSKNSIYLQMNSLKTEDTAVYYCRYVHYGLTGYFSGQGGVDAWGQGTTVTVSSASTKGPSVFPLAPSSKSTSGGTAALGCLVKDYFPEPVTVSWNSGALTSGVHTFPAVLQSSGLYSLSSVVTVPSSSLGTQTYICNVNHKPSNTKVDKKVEPKSCDKTHTCPPCPAPEAAGGPSVFLFPPKPKDTLMISRTPEVTCVVVDVSHEDPEVKFNWYVDGVEVHNAKTKPREEQYASTYRVVSVLTVLHQDWLNGKEYKCKVSNKALPAPIEKTISKAKGQPREPQVYTLPPSRCELTKNQVSLSCAVKGFYPSDIAVEWESNGQPENNYKTTPPVLDSDGSFFLVSKLTVDKSRWQQGNVFSCSVMHEALHNHYTQKSLSLSPDYKDDDDK
chain: EPKSSDKTHTCPPCPAPELLGGPSVFLFPPKPKDTLMISRTPEVTCVVVDVSHEDPEVKFNWYVDGVEVHNAKTKPREEQYNSTYRVVSVLTVLHQDWLNGKEYKCKVSNKALPAPIEKTISKAKGQPREPQVCTLPPSRDELTKNQVSLWCLVKGFYPSDIAVEWESNGQPENNYKTTPPVLDSDGSFFLYSKLTVDKSRWQQGNVFSCSVMHEALHNRYTQKSLSLSP
light: DIVMTQSPLSLPVTPGEPASISCRSSQSLVHSNRNTYLHWYQQKPGQAPRLLIYKVSNRFSGVPDRFSGSGSGTDFTLKISRVEAEDVGVYYCGQGTQVPYTFGQGTKLEIKRTVAAPSVFIFPPSDEQLKSGTASVVCLLNNFYPREAKVQWKVDNALQSGNSQESVTEQDSKDSTYSLSSTLTLSKADYEKHKVYACEVTHQGLSSPVTKSFNRGEC
notes: One-arm antibody
B2: 154R3B01#1 (antibody, human IgG1, kappa, L234A L235A, N297A)
heavy: QVQLVESGGGLVQPGRSLRLSCAASGFTFSSAWMHWVRQAPGKGLEWVAQIKDKQNQYNAYYAESVKGRFTISRDDSKNSIYLQMNSLKTEDTAVYYCRYVHYATSDGFLPYFGVDAWGQGTTVTVSSASTKGPSVFPLAPSSKSTSGGTAALGCLVKDYFPEPVTVSWNSGALTSGVHTFPAVLQSSGLYSLSSVVTVPSSSLGTQTYICNVNHKPSNTKVDKKVEPKSCDKTHTCPPCPAPEAAGGPSVFLFPPKPKDTLMISRTPEVTCVVVDVSHEDPEVKFNWYVDGVEVHNAKTKPREEQYASTYRVVSVLTVLHQDWLNGKEYKCKVSNKALPAPIEKTISKAKGQPREPQVYTLPPSRCELTKNQVSLSCAVKGFYPSDIAVEWESNGQPENNYKTTPPVLDSDGSFFLVSKLTVDKSRWQQGNVFSCSVMHEALHNHYTQKSLSLSPDYKDDDDK
chain: EPKSSDKTHTCPPCPAPELLGGPSVFLFPPKPKDTLMISRTPEVTCVVVDVSHEDPEVKFNWYVDGVEVHNAKTKPREEQYNSTYRVVSVLTVLHQDWLNGKEYKCKVSNKALPAPIEKTISKAKGQPREPQVCTLPPSRDELTKNQVSLWCLVKGFYPSDIAVEWESNGQPENNYKTTPPVLDSDGSFFLYSKLTVDKSRWQQGNVFSCSVMHEALHNRYTQKSLSLSP
light: DIVMTQSPLSLPVTPGEPASISCRSSQSLVHSNRNTYLHWYQQKPGQAPRLLIYKVSNRFSGVPDRFSGSGSGTDFTLKISRVEAEDVGVYYCGQGTQVPYTFGQGTKLEIKRTVAAPSVFIFPPSDEQLKSGTASVVCLLNNFYPREAKVQWKVDNALQSGNSQESVTEQDSKDSTYSLSSTLTLSKADYEKHKVYACEVTHQGLSSPVTKSFNRGEC
notes: One-arm antibody
B3: 154R3F02#2 (antibody, human IgG1, kappa, L234A L235A, N297A)
heavy: QVQLVESGGGLVQPGRSLRLSCAASGFTFSNAWMHWVRQAPGKGLEWVAQIKDRASGYNNYYAESVKGRFTISRDDSKNSIYLQMNSLKTEDTAVYYCRYVHYAQSVSAFFQYGVDAWGQGTTVTVSSASTKGPSVFPLAPSSKSTSGGTAALGCLVKDYFPEPVTVSWNSGALTSGVHTFPAVLQSSGLYSLSSVVTVPSSSLGTQTYICNVNHKPSNTKVDKKVEPKSCDKTHTCPPCPAPEAAGGPSVFLFPPKPKDTLMISRTPEVTCVVVDVSHEDPEVKFNWYVDGVEVHNAKTKPREEQYASTYRVVSVLTVLHQDWLNGKEYKCKVSNKALPAPIEKTISKAKGQPREPQVYTLPPSRCELTKNQVSLSCAVKGFYPSDIAVEWESNGQPENNYKTTPPVLDSDGSFFLVSKLTVDKSRWQQGNVFSCSVMHEALHNHYTQKSLSLSPDYKDDDDK
chain: EPKSSDKTHTCPPCPAPELLGGPSVFLFPPKPKDTLMISRTPEVTCVVVDVSHEDPEVKFNWYVDGVEVHNAKTKPREEQYNSTYRVVSVLTVLHQDWLNGKEYKCKVSNKALPAPIEKTISKAKGQPREPQVCTLPPSRDELTKNQVSLWCLVKGFYPSDIAVEWESNGQPENNYKTTPPVLDSDGSFFLYSKLTVDKSRWQQGNVFSCSVMHEALHNRYTQKSLSLSP
light: DIVMTQSPLSLPVTPGEPASISCRSSQSLVHSNRNTYLHWYQQKPGQAPRLLIYKVSNRFSGVPDRFSGSGSGTDFTLKISRVEAEDVGVYYCGQGTQVPYTFGQGTKLEIKRTVAAPSVFIFPPSDEQLKSGTASVVCLLNNFYPREAKVQWKVDNALQSGNSQESVTEQDSKDSTYSLSSTLTLSKADYEKHKVYACEVTHQGLSSPVTKSFNRGEC
notes: One-arm antibody
B4: 154R3A01#4 (antibody, human IgG1, kappa, L234A L235A, N297A)
heavy: QVQLVESGGGLVQPGRSLRLSCAASGFTFSNAWMHWVRQAPGKGLEWVAQIKDRVNQYANYYAECVKGRFTISRDDSKNSIYLQMNSLKTEDTAVYYCRYVHYGLTGYFSGQGGVDAWGQGTTVTVSSASTKGPSVFPLAPSSKSTSGGTAALGCLVKDYFPEPVTVSWNSGALTSGVHTFPAVLQSSGLYSLSSVVTVPSSSLGTQTYICNVNHKPSNTKVDKKVEPKSCDKTHTCPPCPAPEAAGGPSVFLFPPKPKDTLMISRTPEVTCVVVDVSHEDPEVKFNWYVDGVEVHNAKTKPREEQYASTYRVVSVLTVLHQDWLNGKEYKCKVSNKALPAPIEKTISKAKGQPREPQVYTLPPSRCELTKNQVSLSCAVKGFYPSDIAVEWESNGQPENNYKTTPPVLDSDGSFFLVSKLTVDKSRWQQGNVFSCSVMHEALHNHYTQKSLSLSPDYKDDDDK
chain: EPKSSDKTHTCPPCPAPELLGGPSVFLFPPKPKDTLMISRTPEVTCVVVDVSHEDPEVKFNWYVDGVEVHNAKTKPREEQYNSTYRVVSVLTVLHQDWLNGKEYKCKVSNKALPAPIEKTISKAKGQPREPQVCTLPPSRDELTKNQVSLWCLVKGFYPSDIAVEWESNGQPENNYKTTPPVLDSDGSFFLYSKLTVDKSRWQQGNVFSCSVMHEALHNRYTQKSLSLSP
light: DIVMTQSPLSLPVTPGEPASISCRSSQSLVHSNRNTYLHWYQQKPGQAPRLLIYKVSNRFSGVPDRFSGSGSGTDFTLKISRVEAEDVGVYYCGQGTQVPYTFGQGTKLEIKRTVAAPSVFIFPPSDEQLKSGTASVVCLLNNFYPREAKVQWKVDNALQSGNSQESVTEQDSKDSTYSLSSTLTLSKADYEKHKVYACEVTHQGLSSPVTKSFNRGEC
notes: One-arm antibody

molecular target: T1, biotin-labeled human CD154 (human, UniProt P29965 113-261, limits assumed, biotin-labeled); test: ECL competition: biotinylated CD154, CD3ε homodimer as competitor [1]
T1 construct: also called biotinylated human CD154
T1 sequence (looked up): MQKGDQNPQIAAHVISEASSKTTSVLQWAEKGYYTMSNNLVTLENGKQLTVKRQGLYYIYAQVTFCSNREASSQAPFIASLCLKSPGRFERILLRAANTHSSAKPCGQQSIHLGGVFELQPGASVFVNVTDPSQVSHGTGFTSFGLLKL
Experimental: Next, each obtained IgG was evaluated for its binding to CD3 and human CD154 at the same time by the competition method (electrochemiluminescence method (ECL method)).
A TBST solution containing 0.5% BSA (referred to as a blocking solution; the TBST solution was TBS (manufactured by Takara Bio Inc.) supplemented with 0.1% Tween 20) was added at 150 μL/well to streptavidin plate (MSD K.K.), and the plate was incubated at room temperature for 1 hour or longer. After removal of the blocking solution, each well was washed three times with 250 μL of a TBST solution. The antibody-antigen complex solution was added thereto at 50 L/well, and the plate was incubated at room temperature for 1 hour so that the biotinylated antigen-antibody-detection sulfo-tag antibody complex solution bound via the biotinylated antigen to the streptavidin plate. After removal of the antibody-antigen complex solution, each well was washed three times with a TBST solution, and a solution of 4× READ buffer (MSD K.K.) diluted 2-fold with water was added thereto at 150 μL/well, followed by the detection of the luminescence signal of the sulfo-tag using Sector Imager 2400 (MSD K.K.).

Point of comparison: B4, “Relative ECL reaction (to no antigen coating), CD3ε[+]” value 4. Against it:
- B1 — higher, 19
- B2 — higher, 18
- B3 — higher, 16
